Experimental data from patent publication US20020164707A1, “Calcitonin gene related peptide receptor” (Human Genome Sciences, Inc., priority 1994, published 2002).
No end group written: not given here.

Legend:
[1] = molecular target: T1, CGRP receptor (Homo sapiens, UniProt O60894+Q16602); test: [125I]CGRP binding to membranes from 293 cells (clone 22) stably transformed with CGRP receptor cDNA; details: for rank order of potency in competition against [125I]CGRP binding: two to three independent experiments in duplicate
T1 construct: expressed in transfected cells; host or cells: Human Kidney 293 cells (transient)
T1 sequence (Q16602 23-461): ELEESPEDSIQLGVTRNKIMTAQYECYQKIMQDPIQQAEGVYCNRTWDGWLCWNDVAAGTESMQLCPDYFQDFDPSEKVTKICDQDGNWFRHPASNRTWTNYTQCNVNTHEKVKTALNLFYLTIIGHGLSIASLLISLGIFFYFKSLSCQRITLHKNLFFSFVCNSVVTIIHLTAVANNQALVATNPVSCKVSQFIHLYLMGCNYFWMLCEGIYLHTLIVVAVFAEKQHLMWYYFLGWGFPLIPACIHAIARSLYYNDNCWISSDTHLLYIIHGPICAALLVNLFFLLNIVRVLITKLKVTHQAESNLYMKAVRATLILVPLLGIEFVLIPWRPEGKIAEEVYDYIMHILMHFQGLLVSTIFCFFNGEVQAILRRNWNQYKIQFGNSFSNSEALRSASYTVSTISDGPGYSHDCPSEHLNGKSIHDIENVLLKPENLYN
T1 sequence (O60894 27-148): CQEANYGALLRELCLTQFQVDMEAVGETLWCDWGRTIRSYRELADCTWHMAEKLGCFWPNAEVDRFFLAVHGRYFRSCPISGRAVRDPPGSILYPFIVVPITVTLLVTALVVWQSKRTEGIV
Experimental: FIG. 8. Saturation binding. […] Equilibrium binding was measured at 25° C. for 60 min. […] Data are from one experiment representative of three independent experiments done in duplicate. (B) Scatchard plot of [^125I] CGRP binding.
FIG. 9. Competition binding profiles. Competition curves for representative CGRP analogs against [^125I]CGRP binding to membranes prepared from 293 cells (clone 22 cells) stably transformed with the CGRP receptor cDNA. Each curve is representative of two to three independent experiments, each carried out in duplicate.

[2] = molecular target: human CGRP receptor polypeptide (recombinant, expressed in 293 cells from construct pCDNHCGRPr) (human) (UniProt Q16602); test: cell-based or functional assay
Chain of human CGRP receptor polypeptide (recombinant, expressed in 293 cells from construct pCDNHCGRPr) (human) (Q16602 22-461): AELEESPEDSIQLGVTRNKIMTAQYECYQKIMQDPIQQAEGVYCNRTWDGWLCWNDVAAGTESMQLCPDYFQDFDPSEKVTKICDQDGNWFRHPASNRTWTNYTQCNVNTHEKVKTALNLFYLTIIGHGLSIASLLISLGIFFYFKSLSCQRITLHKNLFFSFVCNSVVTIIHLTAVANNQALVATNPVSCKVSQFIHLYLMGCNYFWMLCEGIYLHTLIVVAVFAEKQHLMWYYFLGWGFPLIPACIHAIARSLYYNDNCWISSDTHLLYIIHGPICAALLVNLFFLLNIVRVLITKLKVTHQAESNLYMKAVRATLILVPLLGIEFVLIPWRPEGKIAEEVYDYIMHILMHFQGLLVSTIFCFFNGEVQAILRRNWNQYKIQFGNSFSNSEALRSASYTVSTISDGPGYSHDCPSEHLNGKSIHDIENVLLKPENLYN

Molecule | rank order of potency in competition against [125I]CGRP binding [1] | other results
salmon calcitonin (8-32): salmon calcitonin fragment (8-32) (VLGKLSQELHKLQTYPRTNTGSGTP; ends and bridges not checked) | >>>> | –
porcine vasoactive intestinal peptide (VIP): porcine vasoactive intestinal peptide | >>>> | –
human calcitonin (hCT): human calcitonin | >>>> | –
CC(C)C[C@H](NC(=O)CNC(=O)[C@H](C)NC(=O)[C@H](CC(C)C)NC(=O)[C@H](CCCNC(=N)N)NC(=O)[C@H](Cc1cnc(I)[nH]1)NC(=O)[C@@H](NC(=O)[C@@H](NC(=O)[C@@H]1CSSC[C@H](NC(=O)[C@H](C)N)C(=O)N[C@@H](CC(=O)O)C(=O)N[C@@H]([C@@H](C)O)C(=O)N[C@@H](C)C(=O)N[C@@H]([C@@H](C)O)C(=O)N1)C(C)C)[C@@H](C)O)C(=O)N[C@@H](CC(C)C)C(=O)N[C@@H](CO)C(=O)N[C@@H](CCCNC(=N)N)C(=O)N[C@@H](CO)C(=O)NCC(=O)NCC(=O)N[C@H](C(=O)N[C@H](C(=O)N[C@@H](CCCCN)C(=O)N[C@@H](CC(N)=O)C(=O)N[C@@H](CC(N)=O)C(=O)N[C@@H](Cc1ccccc1)C(=O)N[C@H](C(=O)N1CCC[C@H]1C(=O)N[C@H](C(=O)N[C@@H](CC(N)=O)C(=O)N[C@H](C(=O)NCC(=O)N[C@@H](CO)C(=O)N[C@@H](CCCCN)C(=O)N[C@@H](C)C(=O)N[C@@H](Cc1ccccc1)C(N)=O)C(C)C)[C@@H](C)O)C(C)C)C(C)C)C(C)C [[^125I] CGRP] | – | Bmax (Scatchard plot, saturation binding) ([1]; equilibrium binding at 25° C. for 60 min): 89 fmol/mg protein
human amylin: islet amyloid polypeptide (IAPP or amylin), human (KCNTATCATQRLANFLVHSSNNFGAILSSTNVGSNTY) | >>>> | –
human CGRP (8-37) (from UniProt P06881 90-119) (peptide) | – | pA2 against CGRP-mediated cAMP accumulation in stably transformed 293 cells, 100 nM CGRP (8-37) [2]: 7.8 pA2
